Laboratory results as given in patent US20260242729A1.

Molecular target: CD28 on the surface of PBMCs and T cells (human) (UniProt P10747)
Assay: flow cytometry; CD28 positive fraction after Fab-multimer magnetic selection, D-biotin release and washing; remaining CD28.3 Fab monomers detected with the α-Ig kappa mAb; live (PI-negative) CD3+ cells; right dot plot

αCD28 Fab fragment derived from the anti-human CD28 antibody CD28.3, heavy chain C-terminally fused to Twin-Strep-tag (monomeric Fab)
percentage of cells within gate: 5.91%
